According to US20080026996A1, “Selective Vpac2 Receptor Reptide Agonists” (ELI LILLY AND COMPANY, priority 2004, published 2008):
Where no end group is shown, it is not given here. [ ]: non-standard residue; d: D form. The star is where a group is joined. Hexanoyl = CCCCCC(=O)*; Aib = CC(C)(N)C(=O)O

T1: human VPAC2 (Homo sapiens, UniProt P41587)
T1 construct: expressed in transfected cells
T1 sequence (P41587 24-438): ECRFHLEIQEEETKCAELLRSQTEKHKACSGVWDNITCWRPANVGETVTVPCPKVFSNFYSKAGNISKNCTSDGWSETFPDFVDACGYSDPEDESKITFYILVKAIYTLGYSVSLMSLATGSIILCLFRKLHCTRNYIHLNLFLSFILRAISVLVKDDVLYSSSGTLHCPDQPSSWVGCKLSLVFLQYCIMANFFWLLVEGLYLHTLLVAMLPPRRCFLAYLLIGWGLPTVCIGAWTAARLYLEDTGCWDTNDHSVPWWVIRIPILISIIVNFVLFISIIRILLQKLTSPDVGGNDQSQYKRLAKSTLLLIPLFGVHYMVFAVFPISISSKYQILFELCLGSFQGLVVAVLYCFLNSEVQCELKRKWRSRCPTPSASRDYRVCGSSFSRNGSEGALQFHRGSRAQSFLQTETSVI

T2: human VPAC1 (Homo sapiens, UniProt P32241)
T2 sequence (P32241 31-457): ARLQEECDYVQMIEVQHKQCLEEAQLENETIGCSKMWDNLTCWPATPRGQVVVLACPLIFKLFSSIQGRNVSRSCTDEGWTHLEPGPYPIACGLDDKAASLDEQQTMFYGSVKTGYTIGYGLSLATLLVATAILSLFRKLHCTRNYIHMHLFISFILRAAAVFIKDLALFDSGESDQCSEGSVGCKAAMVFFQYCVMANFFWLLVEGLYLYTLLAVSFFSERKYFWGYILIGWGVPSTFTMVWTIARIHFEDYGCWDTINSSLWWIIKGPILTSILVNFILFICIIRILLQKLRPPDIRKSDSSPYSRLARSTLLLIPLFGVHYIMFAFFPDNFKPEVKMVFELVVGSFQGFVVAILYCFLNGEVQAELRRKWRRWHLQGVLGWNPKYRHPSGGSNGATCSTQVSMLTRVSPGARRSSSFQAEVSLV

T3: rat VPAC1 receptor (Rattus norvegicus, UniProt P30083)
T3 sequence (P30083 31-459): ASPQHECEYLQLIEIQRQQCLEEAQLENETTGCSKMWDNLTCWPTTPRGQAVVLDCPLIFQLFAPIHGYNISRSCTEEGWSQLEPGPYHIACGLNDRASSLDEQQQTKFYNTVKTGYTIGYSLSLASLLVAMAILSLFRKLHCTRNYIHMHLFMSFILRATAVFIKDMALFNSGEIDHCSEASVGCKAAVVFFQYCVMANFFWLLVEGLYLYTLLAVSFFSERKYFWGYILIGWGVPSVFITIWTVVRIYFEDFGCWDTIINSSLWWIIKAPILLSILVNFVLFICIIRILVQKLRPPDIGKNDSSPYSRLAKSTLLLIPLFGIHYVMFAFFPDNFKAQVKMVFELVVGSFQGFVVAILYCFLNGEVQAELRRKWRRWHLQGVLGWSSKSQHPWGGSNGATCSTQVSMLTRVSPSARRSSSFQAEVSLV

T4: human VPAC2 receptor (human, UniProt P41587 24-438)
T4 sequence (looked up): T1 sequence (P41587 24-438)

T5: rat VPAC1 receptor (rat, UniProt P30083 31-459)
T5 sequence (looked up): T3 sequence (P30083 31-459)

T6: rat VPAC2 receptor (rat, UniProt P35000 23-437)
T6 sequence (looked up): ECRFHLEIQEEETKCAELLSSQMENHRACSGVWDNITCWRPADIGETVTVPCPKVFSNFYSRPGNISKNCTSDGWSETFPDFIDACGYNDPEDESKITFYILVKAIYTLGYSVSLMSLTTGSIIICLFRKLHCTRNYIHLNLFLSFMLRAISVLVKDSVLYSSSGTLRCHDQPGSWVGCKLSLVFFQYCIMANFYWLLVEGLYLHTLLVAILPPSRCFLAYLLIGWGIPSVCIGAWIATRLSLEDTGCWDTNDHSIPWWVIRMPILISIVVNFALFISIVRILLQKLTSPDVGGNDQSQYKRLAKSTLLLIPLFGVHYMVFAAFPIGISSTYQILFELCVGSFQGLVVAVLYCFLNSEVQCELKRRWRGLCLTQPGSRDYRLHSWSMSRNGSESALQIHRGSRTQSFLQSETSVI

T7: rat PAC1 receptor (rat, UniProt P32215 20-523)
T7 sequence (looked up): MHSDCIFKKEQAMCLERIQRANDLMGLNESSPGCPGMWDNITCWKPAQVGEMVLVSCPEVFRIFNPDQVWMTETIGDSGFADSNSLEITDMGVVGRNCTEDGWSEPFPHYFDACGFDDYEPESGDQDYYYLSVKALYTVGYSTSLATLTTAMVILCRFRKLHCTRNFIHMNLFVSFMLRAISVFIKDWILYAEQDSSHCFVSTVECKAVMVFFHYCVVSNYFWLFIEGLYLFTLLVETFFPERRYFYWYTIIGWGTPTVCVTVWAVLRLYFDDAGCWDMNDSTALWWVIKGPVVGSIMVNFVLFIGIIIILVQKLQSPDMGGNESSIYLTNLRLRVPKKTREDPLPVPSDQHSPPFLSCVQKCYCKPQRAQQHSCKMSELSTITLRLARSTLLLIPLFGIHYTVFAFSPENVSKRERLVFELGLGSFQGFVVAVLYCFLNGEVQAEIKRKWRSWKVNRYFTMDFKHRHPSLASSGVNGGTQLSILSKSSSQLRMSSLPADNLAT

T8: human VPAC1 receptor (human, UniProt P32241 31-457)
T8 sequence (looked up): T2 sequence (P32241 31-457)

T9: human PAC1 receptor (human, UniProt P41586 21-468)
T9 sequence (looked up): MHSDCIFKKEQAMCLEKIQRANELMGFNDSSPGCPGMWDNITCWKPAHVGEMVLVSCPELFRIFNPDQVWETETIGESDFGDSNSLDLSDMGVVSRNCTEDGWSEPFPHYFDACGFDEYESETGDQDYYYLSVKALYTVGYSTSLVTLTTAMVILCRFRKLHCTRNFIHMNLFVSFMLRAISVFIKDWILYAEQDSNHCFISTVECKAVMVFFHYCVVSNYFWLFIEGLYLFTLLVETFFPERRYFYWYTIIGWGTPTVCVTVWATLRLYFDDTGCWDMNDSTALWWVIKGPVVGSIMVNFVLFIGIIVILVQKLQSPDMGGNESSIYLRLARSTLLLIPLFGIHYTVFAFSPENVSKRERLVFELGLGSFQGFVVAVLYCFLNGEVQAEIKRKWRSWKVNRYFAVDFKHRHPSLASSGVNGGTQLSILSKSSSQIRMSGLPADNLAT


Legend:
[1] = biological target: T1, human VPAC2; test: DiscoveRx cAMP in vitro potency, CHO-S cell line stably expressing human VPAC2 receptor; assay type: cell-based; conditions: cAMP generation; mean of two independent runs
Method: Also, the cells are washed twice. The cells are incubated in assay buffer plus IBMX for 15 minutes at room temperature. […] The stimuli are present for 30 minutes. Then, the assay buffer is gently removed. […] At day 3, the assay described above for the VPAC2 receptor cell line is performed.

[2] = biological target: T1, human VPAC2; test: Alpha screen cAMP in vitro potency, human VPAC2 receptor; assay type: cell-based; conditions: cAMP generation; single result from two analyses performed in a single run; read-out: Human VPAC2 Receptor: Alpha Screen EC50
Summary of the method: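 Dissociated cells, 50,000 per point in stimulation buffer, were incubated with stimuli and AlphaScreen acceptor beads for 60 min.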

[3] = biological target: T1, human VPAC2; test: Filter binding assay, membranes of stable VPAC2 cell line, 125I-labeled VIP tracer (Table 2); conditions: read-out: Human VPAC2 Receptor Binding
Summary of the method: (§1)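 Competition binding of agonists against radiotracer on receptor membranes (2.5 μg) in 25 mM HEPES pH 7.4 with 0.5% protease-free BSA, about 40000 cpm tracer, 1 hour with shaking. Bound tracer was separated by filtration on PEI-presoaked, BSA-blocked glass-fibre filters, washed and counted by scintillation.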

[4] = tested on: Normal Wistar rats; test: Intravenous glucose tolerance test (IVGTT); assay type: in vivo, rat; conditions: IVGTT, insulin
Method: Intravenous glucose tolerance test (IVGTT): Normal Wistar rats are fasted overnight and are anesthetized prior to the experiment. A blood sampling catheter is inserted into the rats. The compound is given in the jugular vein. Blood samples are taken from the carotid artery. A blood sample is drawn immediately prior to the injection of glucose along with the compound. After the initial blood sample, glucose mixed with compound is injected intravenously (i.v.). A glucose challenge of 0.5 g/kg body weight is given, injecting a total of 1.5 mL vehicle with glucose and agonist per kg body weight. The peptide concentration vary to produce the desired dose in μg/kg. Blood samples are drawn at 2, 4, 6 and 10 minutes after giving glucose. The control group of animals receives the same vehicle along with glucose, but with no compound added. In some instances, a 30 minute post-glucose blood sample is drawn. Aprotinin is added to the blood sample (250 kIU/ml blood). The serum is then analyzed for glucose and insulin using standard methodologies.
The assay uses a formulated and calibrated peptide stock in PBS. Normally, this stock is a prediluted 100 μM stock. However, a more concentrated stock with approximately 1 mg agonist per mL is used. The specific concentration is always known. Variability in the maximal response is mostly due to variability in the vehicle dose.

[5] = Rat serum stability studies (remaining active peptide by DiscoveRx cAMP on CHO-VPAC2 cells); assay type: in vitro ADME
Summary of the method: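 Rat serum, 18 h: +aprotinin aliquot at 4° C, no-aprotinin aliquot at 37° C. Then 30 min RT step, supernatant removed, 1 h shaking at 300 rpm. DiscoveRx cAMP kit on CHO-VPAC2; EC50 from cAMP data vs standards.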

[6] = rat, in vivo, iv, 10 ug/kg
Method: (§2) An IVGTT with glucose is given immediately after T=0 to 6 animals per condition. Samples are taken at 0, 2, 4, 6, and 10 minutes after injection.
(§3) For cell handling, Plate 50,000 cells/well and keep in culture over night. Wash cell twice in PBS and add 50 μl/well stimulation medium consisting of PBS+1.2 MgCl2, 1.3 CaCl2, 2 glucose and 0.5 IBMX. Incubate 15 minutes and add 50 μl/well of the plasma samples (see layout below). Incubate 30 minutes, remove the supernatant and proceed as normal with the DiscoveRx assay. Prepare plates in duplicate. Protease and peptidase inhibitor are present in all plasma samples.

[7] = in vivo; conditions: Wistar, rat, iv, 10 ug/kg
Method: as §2, §3

[8] = biological target: T2, human VPAC1; test: Filter binding assay, membranes of cells transiently transfected with human VPAC1, 125I-labeled VIP tracer (Table 2); design: expressed in transfected cells; conditions: read-out: Human VPAC1 Receptor Binding
Summary of the method: as §1

[9] = biological target: T3, rat VPAC1 receptor; test: DiscoveRx in vitro potency, CHO-PO cells transiently transfected with rat VPAC 1 receptor DNA; assay type: cell-based; design: expressed in transfected cells; host or cells: CHO-PO, transient
Method: Also, the cells are washed twice. […] The stimuli are present for 30 minutes. Then, the assay buffer is gently removed.

[10] = biological target: T4, human VPAC2 receptor; test: cell-based or functional assay
[11] = biological target: T5, rat VPAC1 receptor; test: cell-based or functional assay
[12] = biological target: T6, rat VPAC2 receptor; test: cell-based or functional assay
[13] = biological target: T5, rat VPAC1 receptor; test: cell-based or functional assay; remark: listed apart in the source
[14] = biological target: T6, rat VPAC2 receptor; test: cell-based or functional assay; remark: listed apart in the source
[15] = biological target: T6, rat VPAC2 receptor; test: IC50 on rat VPAC1 over IC50 on rat VPAC2
Source text: Each assay is done in duplicate and performed on two different membrane preparations.
TABLE 3 Binding data are expressed as the IC₅₀ values of tracer inhibition. A different reference compound is used as the tracer for the VPAC1 receptor and for the VPAC2 receptor. The last column represents the ratio between the IC₅₀ values on VPAC1 and VPAC2 receptor and is, thus, an index of selectivity for a receptor subtype. […] The values are given with the standard error.

[16] = biological target: T7, rat PAC1 receptor; test: cell-based or functional assay
[17] = biological target: T8, human VPAC1 receptor; test: cell-based or functional assay
[18] = biological target: T9, human PAC1 receptor; test: cell-based or functional assay

Molecule	EC50 cAMP, Alpha Screen [10]	cAMP max [11]	VPAC1/VPAC2 (EC50 ratio) [12]	cAMP max [12]	EC50 cAMP, DiscoveRx [13]	EC50 cAMP, DiscoveRx [14]	VPAC1/VPAC2 (ratio of IC50 values) [15]	adenylate cyclase potency ratio compared to PACAP-27 [16]	EC50 cAMP, DiscoveRx [10]	other results
HSDAVFTDNYTRLLAKVAAKKYLQSIKNKRYGGPSSGAPPPS [Agonist P89]	–	–	–	–	–	–	–	–	–	EC50 [1]: 0.7 nM; EC50 [2]: 1.23 nM; IC50 [3]: 0.15 nM; % increase AUC: Dose = 0.5 μg/kg ([4]; 0.5 μg/kg): 110%; % increase AUC: Dose = 10 μg/kg ([4]; 10 μg/kg): 280%; Rat Serum Stability (Estimated purity in % after 72 hours) [5]: <0.4%; Exposure (10 μg/kg, Vdist in μg/(nM * kg)) [6]: 0.64 µg/nM/kg; AUC(0-t) [7]: 0.523 nM·h; Cmax [7]: 5.45 nM; half-life [7]: 1.32 min; IC50 [8]: 162 nM; EC50 [9]: 0.02 nM
Hexanoyl-HSDAVFTDNYTRLR[Aib]QVAA[Aib]KYLQSIKNKRYGGPSSGAPPPS (ends and bridges not checked) [P261]	0.09 nM	126	200	78.5	0.35 nM	0.04 nM	363	–	–	–
Hexanoyl-HSDAVFTDNYTRLRKQVAAKKYLQSIKNKRYGGPSSGAPPPS (also called VPAC2-P31) [P31]	0.13 nM	200	174	134	0.44 nM	–	546	> 200 fold	0.11 nM	EC50 cAMP, DiscoveRx [17]: 6 nM; EC50 cAMP, DiscoveRx [18]: 116 nM
Hexanoyl-HSDAVFTDNYTRLR[Aib]QLAA[Aib]KYLQSIKNKGGPSSGAPPPS (ends and bridges not checked) [P292]	0.23 nM	124	100	79.1	1.91 nM	0.07 nM	269	–	–	–
Hexanoyl-HSDAVFTDNYTRLLAKLALQKYLQSIKNKRYGGPSSGAPPPS (also called VPAC2-P119) [P119]	0.42 nM	207	32	133	0.07 nM	–	47	> 200 fold	0.34 nM	–
